Fewer inactive variants are shown than the library holds.
B1: TPR 5TU (parent)
chain: GGAUCUUCUCGAUCUAACAAAAAAGACAAAUCUGCCACAAAGCUUGAGAGCAUCUUCGGAUGCAGAGGCGGCAGCCUUCGGUGGCGCGAUAGCGCCAACGUUCUCAACUAUGACACGCAAAACGCGUGCUCCGUUGAAUGGAGUUUAUCAUG

Variants of: B1
Assay: polymerase ribozyme fitness, log enrichment relative to wild type (log ratio); higher = more active; in vitro selection for triplet polymerase activity
Procedure, shortened: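 After PCR construction and transcription, each subunit's mutant library from a heterodimeric triplet polymerase ribozyme was annealed with a biotinylated primer, the partner subunit and triplets. Incubation was frozen, at −7 °C, and extended constructs were gel-excised, bound to streptavidin beads and amplified by RT-PCR, in one selection round done in triplicate. Fitness is the logarithm of a genotype's enrichment divided by that of the wild type, from inverse-variance-weighted replicate averages of Illumina-sequenced inputs and outputs. The base of the logarithm is 2, and genotypes needed ≥10 input reads and ≥1 read per output.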

Variant	polymerase ribozyme fitness (log ratio)
G58C A73G U101C C125G	-0.932
C57G G88U G94A	≤ -4.2
C57U C95A U109G	-0.696
C57U C76U A98G	-0.421
C57U C95G A120G G143A	-2.18
C57A A121U	-0.0826
C57U C95A G136A	-0.1
C57U C131U	1.26
C57U C75A G88C G133U	≤ -4.2
C57A U61G U78G G88A U148A	≤ -4.2
G58A G83A C87U U101G G141C	-3.39
C57A C93A	-2.04
C57U C87G G88U C95G C116U C123A U134C	≤ -4.2
C57U G81C A106U	-1.74
C57G G140C	-4.08
C57G C93A	-2.2
C57G C93G	-4.06
G58C A60G G92A A121U	-2.24
G58A G88C G92A C96A	≤ -4.2
C57U C85U U146G	-1.44
G58A U101G C132G G133C A142C	-3.72
C57A G58U C76A C85U C96U A147G	-3.03
C57G G84U	-1.79
C57G G84A	-0.518

Variant	polymerase ribozyme fitness (log ratio)
C57G A73U G83C G133U G143C U145C	≤ -4.2
C57A G83C C87U U134G U139A U144G	≤ -4.2
G58A A147U	0.692
C57G A73G C87G A98U C125G G141A	≤ -4.2
C57G C125A	-0.508
C57U G86A A120G G141C	-2.82
C57U A66G	-3.4
U56G G141U	0.498
C57A C85A A107G	≤ -4.2
G58A C87G C116A A147C U151A	≤ -4.2
G58A U104A	0.105
C57G U101A	0.403
C57A A98G C123G U145G	0.398
G58A C87A	≤ -4.2
G58A C93A G112C	-4.12
C57U C96U C103U G117U G136A G141U	≤ -4.2
U56G U148G	-3.89
G58A C149A	-3.67
C57G A115U U145A	-1.54
G58A C85G	-2.86
C57A G65A	-0.56
C57A A64C C129G	≤ -4.2
C57A C72U C99A C103G G140C	≤ -4.2
C57A U146A	-0.0166

Variant	polymerase ribozyme fitness (log ratio)
C57A C79U C93U A98U A147U	-3.03
C57U C79A	-4.19
C57A C85U G124U U130A	-2.9
C57A G74U G88U A115G A119U U145G C149G	≤ -4.2
C57A A107C C125A G133A G136A U151A	≤ -4.2
G58A C96U	0.538
C57U G83U	-1.72
G58A U90A C125G	≤ -4.2
C57U C118G U145C	-0.881
C57A A60G C75G A91U G136A A137G U144G	≤ -4.2
C57U C79A A110C	≤ -4.2
G58A C76U U101G	0.481
G58A U61A C87A G117A	≤ -4.2
C57A G62A G86A A113G A120U U127C G136A A142C	≤ -4.2
C57A U61A C95U A97U A115U U144C	≤ -4.2
G58C A60C G94A G100C C103A	≤ -4.2
G58A G84A U104G G126U	-0.778
C57U C76G A115C A150G	≤ -4.2
G58A U61G	-1.49
C57G G59A C118U C125A G136C	-3.19
C57U A91U	-3.95
G58A A107U G126U C149G	≤ -4.2
G58A G59A C96A	0.0408
C57U C85U C87U U144G	-0.0249

Variant	polymerase ribozyme fitness (log ratio)
C57G U82C C93A C95U C116U	-3.34
G58A C95U	-0.535
C57U C96U	-0.201
C57U C96G	-0.76
C57A G86U	-1.32
C57G G94C C114G C118A	≤ -4.2
C57G G117U G124C	-1.64
C57U A60C G86A C105G	≤ -4.2
G58A C95U G143C	-1.9
C57U C85U U102A C114A	-3.9
C57A C72G U77A C87A U127A G136A	≤ -4.2
C57A G128C	-2.62
G58C A73G C85G	-2.21
C57G C103G	-2.16
C57G G59A G80U G92U C99A C131U U135A	-3.22
C57G G83A G124U G141A	-1.22
C57G G58U C93A	-1.39
C57A C129U G141A	≤ -4.2
C57G C69G U101G C118U	-2.81
G58A G71U	-0.673
C57G C76U G88A G92U	-3.96
C57G G70A C87U C123A	≤ -4.2
G58A C87G A142C	≤ -4.2
C57A A73U G84A U135A	-2.22

Variant	polymerase ribozyme fitness (log ratio)
C57G G71U C72G G84U G133U A137U	≤ -4.2
C57U G80A	-0.314
C57A G59A G84U A97U C118G	-3.12
C57U A97U	-1.22
C57A C96A	-0.383
C57U G124U G128U	-3.76
G58A C79U	-1.65
C57U G83A C99A	-2.32
C57A A91G U101A A142G	-4.08
C57A G59C A60G	0.42
G58A G143U	-1.82
G58A C95U C96G	-1.01
U56G U151C	≤ -4.2
G58C A64C C69G C85U A110U U134G	≤ -4.2
C57G G124U U148G	≤ -4.2
U56G G92U	-2.1
C57G C93A A113G A120C	-4.13
G58C A60G G67A C69A G92U G112A G143C	≤ -4.2
C57G C69A	-2.56
C57U G126A A138U	-3.43
G58A A73U C96U	-0.178
C57U C69A G84U A121C	-2.25
G58A C99U	-0.207
C57G C75U G86A A91C	≤ -4.2

Variant	polymerase ribozyme fitness (log ratio)
C57A A89G A91G U145C U151G	≤ -4.2
G58A A73G G88C A150U	≤ -4.2
G58A C72U C76G C99G A110C	≤ -4.2
C57U G86A C99G	-3.33
C57G C96G U104G	-4.16
C57G C85G	-1.95
C57A C95A C96U G141A	-4.07
C57G G59A U78G G84A	≤ -4.2
C57A A122C	-0.0129
C57U G84U G126C	-0.969
C57U U101G	-0.262
C57U U101A	0.41
C57G C87A U144C	-3.75
U56G G136A	0.0437
C57U G117C A122G	0.204
C57G A73C C87G A97G U101G U130C	≤ -4.2
C57A G68C C85A U134A U146C	≤ -4.2
C57U U102G	-1.87
C57A U78C C95G C99G	-3.07
G58A A89G G94A	-1.91
C57U G86A A98U	-1.55
C57G A113G	-3.44
U56G U78C C99G G124C C125U	-2.94
C57G G86U	-1.26

Variant	polymerase ribozyme fitness (log ratio)
C57A U101G	0.71
G58A C87A A91C C99U	≤ -4.2
G58C A66C G67A A89C U111C C116A C129G U148A	≤ -4.2
C57A C96U C108U G140A	≤ -4.2
C57U G92A U104C U135C	≤ -4.2
U56G U102C	-1.91
C57G C93U A115U	-3.44
C57U C125A	-0.844
G58A C85G A115G	-2.89
G58A C85U A106G	-0.0661
C57G G81U C85G C96U U134A	-4.03
C57U G68U	-3.89
C57U G59C C93A U135G	≤ -4.2
C57A G140A	≤ -4.2
C57G C87U A89C C116A C132A	-4.13
C57A C69A U127A	≤ -4.2
C57U G59U C93U G136U	-2.96
C57G U82A G83U G141U	-1.49
C57U C75U C123G U144C	-0.394
C57A G141A G152U	-3.49
C57U C103G	-1.7
C57G A73G C116U	-0.324
G58A G86A	-1.63

Source: the RNAGym collection of RNA variant scans (doi:10.1073/pnas.2313332121)
